In paper PMC5932034 (2018):

Assays:
[1] = biological target: FliT−FliD chaperone–substrate complex (non-fused) (Salmonella enterica serovar Typhimurium …, UniProt P0A1N2 1-122; P16328 1-467); assay: ITC
[2] = biological target: fused FliT−FliD^C construct (FliD^C fused to the N terminus of FliT) (Salmonella enterica serovar Typhimurium …, UniProt P16328); assay: ITC

Chain of FliT−FliD chaperone–substrate complex (non-fused) (P0A1N2 whole entry, chain 1 of 2, the tested form may be a part): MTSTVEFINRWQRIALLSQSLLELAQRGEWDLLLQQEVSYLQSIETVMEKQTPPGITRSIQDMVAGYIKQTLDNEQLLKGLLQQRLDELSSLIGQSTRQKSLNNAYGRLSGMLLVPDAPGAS
Chain of FliT−FliD chaperone–substrate complex (non-fused) (P16328 whole entry, chain 2 of 2, the tested form may be a part): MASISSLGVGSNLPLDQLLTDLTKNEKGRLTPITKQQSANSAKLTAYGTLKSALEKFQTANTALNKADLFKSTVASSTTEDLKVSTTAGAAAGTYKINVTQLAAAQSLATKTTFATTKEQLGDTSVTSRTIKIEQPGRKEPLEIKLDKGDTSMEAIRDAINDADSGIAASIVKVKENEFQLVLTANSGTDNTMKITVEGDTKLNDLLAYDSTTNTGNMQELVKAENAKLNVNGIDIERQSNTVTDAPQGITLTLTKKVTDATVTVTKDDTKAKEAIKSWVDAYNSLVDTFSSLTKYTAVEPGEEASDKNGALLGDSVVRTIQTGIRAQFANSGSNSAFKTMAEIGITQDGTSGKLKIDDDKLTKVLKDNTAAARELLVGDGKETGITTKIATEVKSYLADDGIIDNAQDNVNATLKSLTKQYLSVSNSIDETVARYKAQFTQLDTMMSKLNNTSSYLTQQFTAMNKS

B1: cytoplasmic domain of Salmonella enterica serovar Typhimurium FlhA (FlhA^C) (domain or fragment)
chain: SLGMEVGYRLIPMVDFQQDGELLGRIRSIRKKFAQDMGFLPPVVHIRDNMDLQPARYRILMKGVEIGSGDAYPGRWLAINPGTAAGTLPGEKTVDPAFGLDAIWIESALKEQAQIQGFTVVEASTVVATHLNHLIGQFSAELFGRQEAQQLLDRVSQEMPKLTEDLVPGVVTLTTLHKVLQNLLAEKVPIRDMRTILETLAEHAPLQSDPHELTAVVRVALGRAITQQWFPGNEEVQVIGLDTALERLLLQALQGGGGLEPGLADRLLAQTQEALSRQEMLGAPPVLLVNHALRPLLSRFLRRSLPQLVVLSNLELSDNRHIRMTATIGGK
For B1, the Kd [1] was about 25 µM and the Kd [2] was about 29 µM.
